# Reference: publication PMC2900200 (2008)
# T1: LP1 peptide
# T1 chain: FPSSWLQRYYLAKRR
# T2: Methuselah (Mth) ectodomain, C-terminal biotinylated (Drosophila melanogaster)
# T2 sequence (O97148 whole entry, looked up): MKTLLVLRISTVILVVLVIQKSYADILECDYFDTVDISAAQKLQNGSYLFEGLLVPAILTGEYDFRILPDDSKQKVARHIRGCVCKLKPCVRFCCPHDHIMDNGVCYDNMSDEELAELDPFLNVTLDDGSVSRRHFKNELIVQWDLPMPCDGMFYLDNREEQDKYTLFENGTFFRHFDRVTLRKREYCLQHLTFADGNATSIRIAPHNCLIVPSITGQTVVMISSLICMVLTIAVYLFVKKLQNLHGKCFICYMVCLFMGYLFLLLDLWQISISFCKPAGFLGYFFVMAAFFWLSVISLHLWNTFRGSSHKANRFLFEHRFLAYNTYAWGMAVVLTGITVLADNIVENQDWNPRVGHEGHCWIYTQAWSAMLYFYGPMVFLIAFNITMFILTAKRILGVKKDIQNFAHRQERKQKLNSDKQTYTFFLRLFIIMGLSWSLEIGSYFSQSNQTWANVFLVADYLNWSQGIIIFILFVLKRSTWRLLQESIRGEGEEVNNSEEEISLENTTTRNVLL
# B1: Methuselah ectodomain (protein)
# chain: DILECDYFDTVDISAAQKLQNGSYLFEGLLVPAILTGEYDFRILPDDSKQKVARHIRGCVCKLKPCVRFCCPHDHIMDNGVCYDNMSDEELAELDPFLNVTLDDGSVSRRHFKNELIVQWDLPMPCDGMFYLDNREEQDKYTLFENGTFFRHFDRVTLRKREYCLQHLTFADGNATSIRIAPHNCLIVPSITGQ
# B2: LP1 L11Q mutant peptide (peptide)
# peptide: Ac-FPSSWLQRYYQAKRR-NH2
# B3: LP1 R15Q mutant peptide (peptide)
# peptide: Ac-FPSSWLQRYYLAKRQ-NH2
# B4: LP1 Y9F mutant peptide (peptide)
# peptide: Ac-FPSSWLQRFYLAKRR-NH2
# B5: LP1 W5K mutant peptide (peptide)
# peptide: Ac-FPSSKLQRYYLAKRR-NH2
# B6: LP1 peptide (wild type) (peptide)
# peptide: Ac-FPSSWLQRYYLAKRR-NH2
# B7: LP1 W5F mutant peptide (peptide)
# peptide: Ac-FPSSFLQRYYLAKRR-NH2
# Molecular target: T1, LP1 peptide
# Assay: not given
row,Kd [nM],Binder
1,18,B1

# Molecular target: T2, Methuselah (Mth) ectodomain, C-terminal biotinylated (Drosophila melanogaster)
# Assay: SPR
row,Kd [nM],Binder
1,24.5,B2
2,37.7,B3
3,49.5,B4
4,> 15000,B5
5,18.5,B6
6,12000,B7
